Test results taken from PMC13379236 (Cell reports, 2026).

Experiments:
ZYG11B-EloBC = ZYG11B-EloBC (Homo sapiens, UniProt Q9C0D3); assay: MBP pull-down with substrate receptor module ZYG11B-EloBC; assay type: binding; settings: R466A mutation of ZYG11B, recombinant purified proteins, Figure S9A
Protocol: Peptides corresponding to […] and […] were appended to the N terminus of maltose-binding protein (MBP) and cloned into pET-28a containing an N-terminal His6 tag followed by a TEV protease cleavage site. Fusion proteins were purified by Ni-NTA chromatography, digested with TEV protease, and passed over Ni-NTA resin again to remove TEV and the cleaved His6 tag. Final purification was performed by size-exclusion chromatography. The resulting proteins contained MBP fused to N-terminal Gly/N-degron overhangs. For pulldown experiments, approximately 100 μg MBP fusion protein was immobilized on 50 μL amylose resin and incubated with prey protein at a 1:1 molar ratio for 1 h at 4°C. Resin was washed three times, and bound proteins were eluted in sizing buffer supplemented with 20 mM maltose. Samples were analyzed by SDS-PAGE and Coomassie staining. Pulldown efficiency was quantified as the ratio of MBP–NLRP1 degron signal to ZYG11B signal in the same gel lane. […]
incubation of full-length Cyclin B1 without Gly/N-degron with ZYG11B–EloBC (top). SDS–PAGE analysis of the indicated fractions from the Superose 6 column (dashed lines) confirms complex formation (bottom) C, fluorescence anisotropy binding of ZYG11B-EloBC to indicated fluorescein-labeled peptides (left) and fitted equilibrium dissociation constants (right). […]

NLRP1 inflammasome = assay type: cell-based, human

Chain of ZYG11B-EloBC (Q9C0D3 whole entry, the tested form may be a part): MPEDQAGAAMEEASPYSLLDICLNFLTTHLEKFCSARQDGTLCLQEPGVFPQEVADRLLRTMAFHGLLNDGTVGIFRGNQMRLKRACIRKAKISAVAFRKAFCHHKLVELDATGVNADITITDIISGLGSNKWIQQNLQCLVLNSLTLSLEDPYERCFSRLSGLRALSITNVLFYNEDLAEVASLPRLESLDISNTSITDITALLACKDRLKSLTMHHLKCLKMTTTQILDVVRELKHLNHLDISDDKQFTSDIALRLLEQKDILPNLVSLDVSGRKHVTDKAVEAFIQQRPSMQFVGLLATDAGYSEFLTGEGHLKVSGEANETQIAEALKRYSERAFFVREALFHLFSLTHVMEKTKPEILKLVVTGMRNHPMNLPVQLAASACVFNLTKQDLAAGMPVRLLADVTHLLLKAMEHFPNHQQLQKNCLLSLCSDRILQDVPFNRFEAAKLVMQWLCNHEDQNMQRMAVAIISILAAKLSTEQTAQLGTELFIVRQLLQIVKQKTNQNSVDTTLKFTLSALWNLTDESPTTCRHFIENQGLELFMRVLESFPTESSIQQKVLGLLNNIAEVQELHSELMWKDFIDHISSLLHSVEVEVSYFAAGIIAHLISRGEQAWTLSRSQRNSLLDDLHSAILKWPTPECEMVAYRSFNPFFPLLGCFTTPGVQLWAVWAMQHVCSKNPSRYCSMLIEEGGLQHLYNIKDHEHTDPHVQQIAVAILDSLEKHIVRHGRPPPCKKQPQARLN
Chain of ZYG11B-EloBC (Q15370 whole entry partner, the tested form may be a part): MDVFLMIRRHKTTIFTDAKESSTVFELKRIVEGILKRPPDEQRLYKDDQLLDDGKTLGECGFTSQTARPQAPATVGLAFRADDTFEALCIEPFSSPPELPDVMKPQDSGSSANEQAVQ
Chain of ZYG11B-EloBC (Q15369 17-112 partner limits assumed): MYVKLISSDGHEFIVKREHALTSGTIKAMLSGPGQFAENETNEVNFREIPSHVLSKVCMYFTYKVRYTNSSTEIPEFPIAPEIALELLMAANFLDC

Row | Molecule | binding to ZYG11B-EloBC R466A mutant versus WT (ZYG11B-EloBC) | inflammasome activation of NLRP1 mutant upon HRV 3Cpro (NLRP1 inflammasome)
1 | NLRP1 Gly/N-degron: C-terminal fragment generated by 3C cleavage, which exposes the Gly/N-degron, begins at glycine-131 (protein) GSERRVLRQLPDTSGRRWREISASLLYQALPSSPDHESPSQESPNAPTSTAVLGSWGSPPQPSLAPREQEAPGTQWPLDETSGIYYTEIREREREKSEKGRPPWAAVVGTPPQAHTSLQPHHHPWEPSVRESLCSTWPWKNEDFNQKFTQLLLLQRPHPRSQDPLVKRSWPDYVEENRGHLIEIRDLFGPGLDTQEPRIVILQGAAGIGKSTLARQVKEAWGRGQLYGDRFQHVFYFSCRELAQSKVVSLAELIGKDGTATPAPIRQILSRPERLLFILDGVDEPGWVLQEPSSELCLHWSQPQPADALLGSLLGKTILPEASFLITARTTALQNLIPSLEQARWVEVLGFSESSRKEYFYRYFTDERQAIRAFRLVKSNKELWALCLVPWVSWLACTCLMQQMKRKEKLTLTSKTTTTLCLHYLAQALQAQPLGPQLRDLCSLAAEGIWQKKTLFSPDDLRKHGLDGAIISTFLKMGILQEHPIPLSYSFIHLCFQEFFAAMSYVLEDEKGRGKHSNCIIDLEKTLEAYGIHGLFGASTTRFLLGLLSDEGEREMENIFHCRLSQGRNLMQWVPSLQLLLQPHSLESLHCLYETRNKTFLTQVMAHFEEMGMCVETDMELLVCTFCIKFSRHVKKLQLIEGRQHRSTWSPTMVVLFRWVPVTDAYWQILFSVLKVTRNLKELDLSGNSLSHSAVKSLCKTLRRPRCLLETLRLAGCGLTAEDCKDLAFGLRANQTLTELDLSFNVLTDAGAKHLCQRLRQPSCKLQRLQLVSCGLTSDCCQDLASVLSASPSLKELDLQQNNLDDVGVRLLCEGLRHPACKLIRLGLDQTTLSDEMRQELRALEQEKPQLLIFSRRKPSVMTPTEGLDTGEMSNSTSSLKRQRLGSERAASHVAQANLKLLDVSKIFPIAEIAEESSPEVVPVELLCVPSPASQGDLHTKPLGTDDDFWGPTGPVATEVVDKEKNLYRVHFPVAGSYRWPNTGLCFVMREAVTVEIEFCVWDQFLGEINPQHSWMVAGPLLDIKAEPGAVEAVHLPHFVALQGGHVDTSLFQMAHFKEEGMLLEKPARVELHHIVLENPSFSPLGVLLKMIHNALRFIPVTSVVLLYHRVHPEEVTFHLYLIPSDCSIRKAIDDLEMKFQFVRIHKPPPLTPLYMGCRYTVSGSGSGMLEILPKELELCYRSPGEDQLFSEFYVGHLGSGIRLQVKDKKDETLVWEALVKPGDLMPATTLIPPARIAVPSPLDAPQLLHFVDQYREQLIARVTSVEVVLDKLHGQVLSQEQYERVLAENTRPSQMRKLFSLSQSWDRKCKDGLYQALKETHPHLIMELWEKGSKKGLLPLSS | relatively strong reduction | 
2 | E133K: E133K mutation of NLRP1 (residue E3 of the Gly/N-degron) (protein) GSKRRVLRQLPDTSGRRWREISASLLYQALPSSPDHESPSQESPNAPTSTAVLGSWGSPPQPSLAPREQEAPGTQWPLDETSGIYYTEIREREREKSEKGRPPWAAVVGTPPQAHTSLQPHHHPWEPSVRESLCSTWPWKNEDFNQKFTQLLLLQRPHPRSQDPLVKRSWPDYVEENRGHLIEIRDLFGPGLDTQEPRIVILQGAAGIGKSTLARQVKEAWGRGQLYGDRFQHVFYFSCRELAQSKVVSLAELIGKDGTATPAPIRQILSRPERLLFILDGVDEPGWVLQEPSSELCLHWSQPQPADALLGSLLGKTILPEASFLITARTTALQNLIPSLEQARWVEVLGFSESSRKEYFYRYFTDERQAIRAFRLVKSNKELWALCLVPWVSWLACTCLMQQMKRKEKLTLTSKTTTTLCLHYLAQALQAQPLGPQLRDLCSLAAEGIWQKKTLFSPDDLRKHGLDGAIISTFLKMGILQEHPIPLSYSFIHLCFQEFFAAMSYVLEDEKGRGKHSNCIIDLEKTLEAYGIHGLFGASTTRFLLGLLSDEGEREMENIFHCRLSQGRNLMQWVPSLQLLLQPHSLESLHCLYETRNKTFLTQVMAHFEEMGMCVETDMELLVCTFCIKFSRHVKKLQLIEGRQHRSTWSPTMVVLFRWVPVTDAYWQILFSVLKVTRNLKELDLSGNSLSHSAVKSLCKTLRRPRCLLETLRLAGCGLTAEDCKDLAFGLRANQTLTELDLSFNVLTDAGAKHLCQRLRQPSCKLQRLQLVSCGLTSDCCQDLASVLSASPSLKELDLQQNNLDDVGVRLLCEGLRHPACKLIRLGLDQTTLSDEMRQELRALEQEKPQLLIFSRRKPSVMTPTEGLDTGEMSNSTSSLKRQRLGSERAASHVAQANLKLLDVSKIFPIAEIAEESSPEVVPVELLCVPSPASQGDLHTKPLGTDDDFWGPTGPVATEVVDKEKNLYRVHFPVAGSYRWPNTGLCFVMREAVTVEIEFCVWDQFLGEINPQHSWMVAGPLLDIKAEPGAVEAVHLPHFVALQGGHVDTSLFQMAHFKEEGMLLEKPARVELHHIVLENPSFSPLGVLLKMIHNALRFIPVTSVVLLYHRVHPEEVTFHLYLIPSDCSIRKAIDDLEMKFQFVRIHKPPPLTPLYMGCRYTVSGSGSGMLEILPKELELCYRSPGEDQLFSEFYVGHLGSGIRLQVKDKKDETLVWEALVKPGDLMPATTLIPPARIAVPSPLDAPQLLHFVDQYREQLIARVTSVEVVLDKLHGQVLSQEQYERVLAENTRPSQMRKLFSLSQSWDRKCKDGLYQALKETHPHLIMELWEKGSKKGLLPLSS |  | reduced inflammasome activation
